For four molecules, binding result and Kd results are on record in paper PMC10367348 (Journal of Biomedical Science, 2023).

The target in assay [1] is T1, matrix protein 2 [Influenza A virus (A/New York/392/2004(H3N2))] (Influenza A virus (A/New …, UniProt P0DOF5, strain)).
T1 construct: also called M2; M2 protein
Nature of the assay: flow cytometry on cells. Conditions: one partner purified. (A flow cytometer gives signals particle by particle.)

Assay [2] addresses T2, biotinylated BSA conjugated peptide (influenza A virus, also: biotinylated, BSA conjugated).
T2 peptide: KSLLTEVETPI
As to the kind of experiment: BLI. Background: Biolayer interferometry detects binding as a change in optical thickness at a sensor tip.

Ends that are not written are not given here.

B1: scFv JU1 (scFv, V domains shown)
VH: EVQLLESGGGLVQPGGSLRLSCAASGFTFSSYAMSWVRQAPGKGLEWVSRISAQGNQTRYSDSVKGRFTISRDNSKNTLYLQMNSLRAEDTAVYYCAKKSSYFDYWGQGTLVTVSS
VL: DIQMTQSPSSLSASVGDRVTITCRASQSISSYLNWYQQKPGKAPKLLIYKASTLQSGVPSRFSGSGSGTDFTLTISSLQPEDFATYYCQQWRTRPLTFGQGTKVEIK
B1: in assay [1], the binding result was “binds”. Besides, the Kd in assay [2] came to 3610 nM.

B2: scFv UU1 (scFv, V domains shown)
VH: EVQLLESGGGLVQPGGSLRLSCAASGFTFSSYAMSWVRQAPGKGLEWVSTISMSGKRTQYADSVKGRFTISRDNSKNTLYLQMNSLRAEDTAVYYCAKRHRYFDYWGQGTLVTVSS
VL: DIQMTQSPSSLSASVGDRVTITCRASQSISSYLNWYQQKPGKAPKLLIYRASKLQSGVPSRFSGSGSGTDFTLTISSLQPEDFATYYCQQPGWRPKTFGQGTKVEIK
On to B2, for which, in assay [1], the binding result is given as “binds”. The same molecule displayed a Kd in assay [2] of 8600 nM.

B3: scFv GU1 (scFv, V domains shown)
VH: EVQLLESGGGLVQPGGSLRLSCAASGFTFSSYAMSWVRQAPGKGLEWVSGISQLGGYTGYAGSVKGRFTISRDNSKNTLYLQMNSLRAEDTAVYYCAKNRATFDYWGQGTLVTVSS
VL: DIQMTQSPSSLSASVGDRVTITCRASQSISSYLNWYQQKPGKAPKLLIYAASHLQSGVPSRFSGSGSGTDFTLTISSLQPEDFATYYCQQSQHKPLTFGQGTKVEIK
For B3, the binding result in assay [1] is “binds”. Moreover, in assay [2], the Kd stood at 350 nM.

B4: scFv AU1 (scFv, V domains shown)
VH: EVQLLESGGGLVQPGGSLRLSCAASGFTFSSYAMSWVRQAPGKGLEWVSTILQHGQRTLYADSVKGRFTISRDNSKNTLYLQMNSLRAEDTAVYYCAKNRAVFDYWGQGTLVTVSS
VL: DIQMTQSPSSLSASVGDRVTITCRASQSISSYLNWYQQKPGKAPKLLIYTASTLQSGVPSRFSGSGSGTDFTLTISSLQPEDFATYYCQQYRQRPPTFGQGTKVEIK
notes: also called AU1 scFv
B4: the binding result in assay [1] was “binds”. Moreover, the affinity in assay [2], expressed as Kd, was 940 nM.

In general, Kd refers to the concentration at which binding is half-saturated. Low readings indicate higher affinity, high ones lower affinity.
